The text below walks through data of PMC4335073.

The target of the assay is Ross River virus (RRV), WT T48 strain, UV-inactivated virus coated on plates (Ross River virus, strain T48).

On to “recombinant human PTX3 N-terminal fragment (domain or fragment)”, for which the RRV entry into HEK 293T cells at 0 and 6 hpi (flow cytometry with anti-alphavirus antibody), RRV pre-incubated with the PTX3 fragment, compared with full-length rhPTX3 (% less efficient than full-length rhPTX3) was found to be 30.
